Experimental data published in the supplement of paper PMC7125110.
± gives the standard error. Variants at the floor of the assay were thinned out.

B1: glmS ribozyme (parent)
chain: AUAAAAGCGCCAGAACUACAGAAAUGUAGUUGACGAGGAGGAGGUUUAUCGAAUUUUCGGCGGAUGCCUCCAAA

How the values were obtained:
Settings in all cases: with glucosamine-6-phosphate
[1] = variants of: B1; assay: self-cleavage kobs at 40 uM GlcN6P; higher = faster cleavage; RNA array
Summary of the method: (§1)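 E. coli RNA polymerase transcribed barcoded ribozyme variants in situ on sequenced MiSeq chips, which were tracked via a hybridised Cy3 probe at 37 °C. Tiles were imaged over ~14 h after glucosamine-6-phosphate (40 μM to 10 mM) in HEPES/KCl/Mg(OAc)2 buffer was flowed in. Normalised per-tile medians were fit to one- or two-exponential decays for kobs, and kcat and KM came from weighted Michaelis–Menten fits.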

[2] = variants of: B1; assay: self-cleavage kobs at 10000 uM GlcN6P; higher = faster cleavage; RNA array
Summary of the method: as §1

[3] = variants of: B1; assay: self-cleavage kobs at 160 uM GlcN6P; higher = faster cleavage; RNA array
Summary of the method: as §1

[4] = variants of: B1; assay: self-cleavage kobs at 640 uM GlcN6P; higher = faster cleavage; RNA array
Summary of the method: as §1

[5] = variants of: B1; assay: self-cleavage kobs at 2500 uM GlcN6P; higher = faster cleavage; RNA array
Summary of the method: as §1

Row | Variant | self-cleavage kobs at 40 uM GlcN6P [1] | self-cleavage kobs at 10000 uM GlcN6P [2] | self-cleavage kobs at 160 uM GlcN6P [3] | self-cleavage kobs at 640 uM GlcN6P [4] | self-cleavage kobs at 2500 uM GlcN6P [5]
1 | AUAAAAGCGCCGGAACUACAGAAAUGUAGUUGACGCGGAGGAGGUUUAUCUAAUUUUCGGCGGAUGCCUCCAAA [A12G A36C G51U] | < 1e-05 s⁻¹ | < 1e-05 s⁻¹ |  |  | 
2 | AUAAAAGCGCCCGAACUACAGAAAUGUAGUUGACGAGGAGGAGGUUUAUCGAAUGUUCGGCGGAUGCCUCCAAA [A12C U55G] | 0.000833 ± 0.00013 s⁻¹ | 0.0274 ± 0.0044 s⁻¹ | 0.000979 ± 0.00021 s⁻¹ | 0.00404 ± 0.00084 s⁻¹ | 0.00822 ± 0.0022 s⁻¹
3 | AUAAAAGCGCCGGAACUACAGAAAUGUAGUUGACGAGGAGGAGGUUUAUCGACUGUUCGGCGGAUGCCUCCAAA [A12G A53C U55G] | < 1e-05 s⁻¹ | 0.000115 ± 1.8e-05 s⁻¹ |  |  | 
4 | AUAAAAGCGCCGGAACUACAGAAAUGUAGUUGACGAGGAGGAGGUUUAUCGAAUUUUCGACGGAUGCCUCCAAA [A12G G60A] | < 1e-05 s⁻¹ | < 1e-05 s⁻¹ | < 1e-05 s⁻¹ |  | < 1e-05 s⁻¹
5 | AUAAAAGCGCCGGAACUACAGAAAUGUAGUUGACGAGGAGGAGGUUUAUCGAAUUUUCGCCGGAUGCCUCCAAA [A12G G60C] | < 1e-05 s⁻¹ | < 1e-05 s⁻¹ | < 1e-05 s⁻¹ | < 1e-05 s⁻¹ | < 1e-05 s⁻¹
6 | AUAAAAGCGCCCGAACUACAGAAAUGUAGUUGACGAGGAGGAUGUUUAUCGAAUUUUCGGCGGAUGCCUACAAA [A12C G43U C70A] | < 1e-05 s⁻¹ | < 1e-05 s⁻¹ |  |  | 
7 | AUAAAAGCGCCGGAACUACAGAAAUGUAGUUGACGAGGAGGAGGUUUAUCGCAUUUUCGGCGGAUGGCUCUAAA [A12G A52C C67G C71U] | < 1e-05 s⁻¹ |  |  |  | < 1e-05 s⁻¹
8 | AUAAAAGCGCCCGAACUACAGAAAUGUAGUUGACGAGCAGGAGGUUUAUCGAAUUCUCGGCGGAUGCCUCCAAA [A12C G38C U56C] | < 1e-05 s⁻¹ | < 1e-05 s⁻¹ |  |  | 
9 | AUAAAAGCGCCGGAACUACAGAAAUGUAGUUGACGAGGAGGAGGUUUAUGGAAUUUUUGGCGGAUGCCUCCAAA [A12G C50G C58U] | 0.000139 ± 4.9e-05 s⁻¹ | 3.85e-05 ± 1.8e-05 s⁻¹ |  |  | 
10 | AUAAAAGCGCCCGAACUACAGAAAUGUAGUCGACGAGGCGGAGGUUUAUCGAAUUUGCGGCGGAUGACUCCAAA [A12C U31C A39C U57G C67A] | < 1e-05 s⁻¹ | < 1e-05 s⁻¹ |  |  | 
11 | AUAAAAGCGCCGUAACUACAGAAAUGUAGUCGACGAGGAGGAGGUUUAGCGAAUUUUCGGCGGAUGCCUCCAAA [A12G G13U U31C U49G] | < 1e-05 s⁻¹ |  |  |  | 
12 | AUAAAAGCGCCGGAAGUACAGAAAUGUAGUUGACGAGGAGGACGUUUAUCGAAUUUUCGGCGGAUGCCUCCAAA [A12G C16G G43C] | < 1e-05 s⁻¹ |  |  |  | 
13 | AUAAAAGCGCCGGAACUACAGAAAUGUAGUUGACGGGGAGGAGGUUUAUCGAAUUUUCGGCGGAUGCCUCCAAA [A12G A36G] | < 1e-05 s⁻¹ | < 1e-05 s⁻¹ | < 1e-05 s⁻¹ | < 1e-05 s⁻¹ | 
14 | AUAAAAGCGCCGGAACUACAGAAAUGUAGUUGACGAGGAGCAGGUUUAUCGAAUUUUCGGUGGAUGCCUCCAAA [A12G G41C C61U] | < 1e-05 s⁻¹ | < 1e-05 s⁻¹ |  |  | < 1e-05 s⁻¹
15 | AUAAAAGCGCCGGGCCUACAGAAAUGUAGGUGACGAGGAGGAGGUUUAUCGAAUUUUCGGCGGAUGCCUCCAAA [A12G A14G A15C U30G] | 7.29e-05 ± 2e-05 s⁻¹ | 0.0042 ± 0.00087 s⁻¹ |  |  | 
16 | AUAAAAGCGCCCGAACUACAGAAAUGUAGUUGACGAGGAGGAGGUUUAUCGAAUUUUCGGCUGAUGCCUCCAAA [A12C G62U] | < 1e-05 s⁻¹ | < 1e-05 s⁻¹ | < 1e-05 s⁻¹ | < 1e-05 s⁻¹ | < 1e-05 s⁻¹

Row | Variant | self-cleavage kobs at 40 uM GlcN6P [1] | self-cleavage kobs at 10000 uM GlcN6P [2] | self-cleavage kobs at 160 uM GlcN6P [3] | self-cleavage kobs at 640 uM GlcN6P [4] | self-cleavage kobs at 2500 uM GlcN6P [5]
17 | AUAAAAGCGCCCGAACUACAGAAAUGUAGGUGACGAGGAGGAGGUUUAUCGAAGUUUCGGCGGAUGCCUCCAAA [A12C U30G U54G] | 3.64e-05 ± 1.3e-05 s⁻¹ | 0.00183 ± 0.00039 s⁻¹ |  |  | 0.000897 ± 0.00025 s⁻¹
18 | AUAAAAGCGCCGGAACUACAGAAAUGUAGUUGACGAGGAGGAGGUUUAUCGAAUUUUCAGCGGAUGCCUCCAAA [A12G G59A] | < 1e-05 s⁻¹ | 2.34e-05 ± 1.1e-05 s⁻¹ | < 1e-05 s⁻¹ |  | 
19 | AUAAAAGCGCCGGAACUACAGAAAUGUAGUUGACGAGGAGGAGGUUUCUCGAAUUUUCGGCGGAUGCCUCCAAA [A12G A48C] | < 1e-05 s⁻¹ |  |  |  | 
20 | AUAAAAGCGCCGGAACUACAGAAAUGUAGUUGACGAGGAGGAGGUUUUUCGAAUUUUCGGCGGAUGCCUCCAAA [A12G A48U] | < 1e-05 s⁻¹ | 2.34e-05 ± 7.6e-06 s⁻¹ | < 1e-05 s⁻¹ |  | 
21 | AUAAAAGCGCCGGAACUACAGAAAUGUAGUUGACGAGGAUGAGGUUUAUCGAAGUUUCGGCGGAUGCCUCCAAA [A12G G40U U54G] | < 1e-05 s⁻¹ | 0.000231 ± 6e-05 s⁻¹ |  |  | 
22 | AUAAAAGCGCCCGAACUACAGAAAUGUAGUUGACGAGCAGGAGGAUUAUCGAAUUUUCGGCGGAUGCCUCCAAA [A12C G38C U45A] | < 1e-05 s⁻¹ | < 1e-05 s⁻¹ |  |  | 
23 | AUAAAAGCGCCGGAACUACAGAAAUGUAGUUGACGAGGAGGAGGUUUAUCGAAUUUUCGGCGGAUGCGUCUAAA [A12G C68G C71U] | < 1e-05 s⁻¹ | < 1e-05 s⁻¹ |  | < 1e-05 s⁻¹ | 
24 | AUAAAAGCGCCCGAACUACAGAAAUGUAGUUGACGAGGAGGACGUUUAUCGAAUUUUCGGCGGAUUCCUCCAAA [A12C G43C G66U] | < 1e-05 s⁻¹ | < 1e-05 s⁻¹ |  |  | 
25 | AUAAAAGCGCCCGAACUACAGAAAUGUAGUUGACGAGGAGGAGGUUUAUCGAAUUAUCGGCGGCUGCCUCCAAA [A12C U56A A64C] | < 1e-05 s⁻¹ |  |  | 9.73e-05 ± 3.4e-05 s⁻¹ | 
26 | AUAAAAGCGCCGGAACUACAGAAAUGUAGUUGACGUGGAGGAGGUUUAUGGAAUUUUCGGCGGAUGCCUUUAAA [A12G A36U C50G C70U C71U] | 0.000102 ± 4.6e-05 s⁻¹ | 5.91e-05 ± 1.9e-05 s⁻¹ |  |  | 
27 | AUAAAAGCGCCGGAACUACAGAAAUGUAGUUGACGUGGAGGUGGUUUAUCUACUUUUCGGCGGAUGCCUCCAAA [A12G A36U A42U G51U A53C] | < 1e-05 s⁻¹ |  |  |  | 
28 | AUAAAAGCGCCCGAACUACAGAAAUGUAGUUGACGAGGAGGAGGUUUAUCGAAUUUUCUGCGGAUGCGUCCAAA [A12C G59U C68G] | < 1e-05 s⁻¹ |  |  |  | 
29 | AUAAAAGCGCCCGAACUACAGAAAUGUAGAUGACGAGCAGGAGGUUUAUCGAAUUUUCGGUGGAUGCCUCCAAA [A12C U30A G38C C61U] | < 1e-05 s⁻¹ |  |  |  | < 1e-05 s⁻¹
30 | AUAAAAGCGCCGGAACUACAGAAAUGUAGUUGACGAGGAGGAGGUUUAUCGAAUUUUCGGCGGUUGCCUCUAAA [A12G A64U C71U] | < 1e-05 s⁻¹ |  |  |  | 
31 | AUAAAAGCGCCGGAACUACAGAAAUGUAGUUGACGAGGAGGCGGUCUAUCGAAUUUUCGGGGGAUGCCUCCAAA [A12G A42C U46C C61G] | < 1e-05 s⁻¹ | < 1e-05 s⁻¹ |  |  | 
